Tests used:
Assay type in all cases: cell-based, Saccharomyces cerevisiae
BEM1-2 = experiment: DHFR-PCA on solid medium, bait BEM1-2 (Fig. 1B); conditions: bait BEM1-2, label = prey; for medrep (log2 median colony size normalized to plate background, PCA score): 2-8 replicates; for Ratio (SH3-deleted/WT medrep): only significant differences showed, PPIs completely lost have a ratio of 0.1 and the gained PPIs 2.5
From the text: (§1) Supplement 41467_2021_21873_MOESM8_ESM.xlsx, sheet "Fig1B" | column: medsize; medrep; Ratio; Score

BEM1-1 = experiment: DHFR-PCA on solid medium, bait BEM1-1 (Fig. 1B); conditions: bait BEM1-1, label = prey; for medrep (log2 median colony size normalized to plate background, PCA score): 2-8 replicates; for Ratio (SH3-deleted/WT medrep): only significant differences showed, PPIs completely lost have a ratio of 0.1 and the gained PPIs 2.5
From the text: as §1

BOI2 = experiment: DHFR-PCA on solid medium, bait BOI2 (Fig. 1B); conditions: bait BOI2, label = prey; for medrep (log2 median colony size normalized to plate background, PCA score): 3-8 replicates
From the text: as §1

[1] = system: 575 putative partners (preys) of 22 WT SH3-containing proteins; experiment: DHFR-PCA on solid medium, WT and SH3-deleted baits (Fig. 1B); set-up: key to Score: 0: SH3-independent; 1: SH3-dependent PPIs; 2: SH3-inhibited PPIs; conditions: for medrep (log2 median colony size normalized to plate background, PCA score): label = prey
Outline: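 In S. cerevisiae, 22 SH3-containing baits fused genomically to DHFR F[1,2], either WT or with each SH3 replaced via CRISPR by a poly-Gly/Ser linker, screened against 575 DHFR F[3] preys plus 40 negative controls in 1536 arrays, preys duplicated at randomized positions.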

ABP1 = experiment: DHFR-PCA on solid medium, bait ABP1 (Fig. 1B); conditions: bait ABP1, label = prey; 2-4 replicates
From the text: as §1

BBC1 = experiment: DHFR-PCA on solid medium, bait BBC1 (Fig. 1B); conditions: bait BBC1, label = prey; for medrep (log2 median colony size normalized to plate background, PCA score): 2-4 replicates; for Ratio (SH3-deleted/WT medrep): only significant differences showed, PPIs completely lost have a ratio of 0.1 and the gained PPIs 2.5
From the text: as §1

Abp1 PPIs = experiment: DHFR-PCA of Abp1 SH3-swapped baits (Fig. 2B-D, S2C, S2F); conditions: Fig2B; bait ABP1, label = prey; Replicates 4
Outline: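 Yeast DHFR-PCA in which Abp1 baits, carrying their SH3 replaced by CRISPR–Cas9 with one of 27 yeast SH3s or human CTTN, HCLS1 or DBNL SH3s, were mated against 575 SH3-associated DHFR F[3] preys plus 40 negative controls. Four tests were run per PPI. Diploids were selected twice (48 h, 30 °C), then grown 4 days on PCA selection media.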

[2] = bait SLA1-2, DHFR-PCA, Replicates 4 (2 for YCR009C, YDR388W)
[3] = bait SLA1-3, DHFR-PCA, Replicates 4 (2 for YCR009C, YDR388W, YIL033C)

B1: YER114C (protein)
chain: PMYIAINEYFKRMEDELDMKPGDKIKVITDDEEYKDGWYFGRNLRTNEEGLYPVVFTQKIT
BEM1-2
  medrep (log2 median colony size normalized to plate background, PCA score): 2.85
  Ratio (SH3-deleted/WT medrep): 0.1
BEM1-1
  medrep (log2 median colony size normalized to plate background, PCA score): 2.85
BOI2
  medrep (log2 median colony size normalized to plate background, PCA score): 3.383

B2: YDR166C (protein, UniProt P89102 1-971, looked up)
Exocyst complex component SEC5: MDRFQIGDEQLLRFYQLKTINPTHSWAQDSSKLNNEEATSNELGVETSFDILKDFKYGNQISIDKESRAYLNDESLSYIRDPLNGQEMSKELQHLPNDSMRLNYLVNSKQFNVKAFLRDMHKQDSFNDLNNSLDRLDSDIQDQSIHLKQLVGKNFTKYVKIKNKLDQIYKEFDEKTNEKNQCDSPKENQINVESLNKKVDEVIRTTTFKLKPLMDNYQKILNYQATKKFIELNKFYFNLPKSLKRCLTNNDFNEFIIEYSKGLTLRRRFNQSSDASQSLVIKRIWTQIENLLVTYKDLIWNSLINSNFNIDQPQETILSLFSKLLNLENFINNNQRESESGNKNTTSSSNENPILRWMSIKMNGFQNELNELSGHMISKIIHSQRLILQNNTNQDKSQGCVELSYYLKINQLFQIISDTGKDSEGLKSTVEPNKVNTISGTSYLNLNCQPSSQGLTDSPTIIEMWLLILKYINDLWKICDQFIEFWEHIEKFLDGTYQNSIINEKRKENILIGDSNIIESYQKSLILKEEQINEVRLKGEEFITSVSQNLISFFTSSQSSLPSSLKDSTGDITRSNKDSGSPLDYGFIPPNCNGLSCLRYLPKIVEPILKFSTELAQLNITTNGITICRNTLSTIINRCVGAISSTKLRDISNFYQLENWQVYETVTFSSKSQDSSKNLTFEYGVTQFPEIVTSFQEVSIKTTRDLLFAYEKLPIINGISVVSYPSKQLLTGIEIQQIISMEAVLEAILKNAAKDKDNPRNSHTILTLTNLQYFRECAFPNILQYFDDAFEWNLASKNLELFSLLSKMESSIFGNYLSDLKINLRDTLEEKFHEINWPMYTSNSFRVGDYIIEALMILIVVHSECFRIGPQLIHKILIETQIFIARYLFEAFKPYVGNLSNDGSLQIIVDLEFFQKVMGPLLEKDTEATLRACLQNCFQNDTNRLQKCINEINPIVSANLKRTAIQFAAFS
BEM1-2
  medrep (log2 median colony size normalized to plate background, PCA score): 2.981
  Ratio (SH3-deleted/WT medrep): 0.1
BEM1-1
  medrep (log2 median colony size normalized to plate background, PCA score): 2.981
BOI2
  medrep (log2 median colony size normalized to plate background, PCA score): 1.688
BOI2; only significant differences showed, PPIs completely lost have a ratio of 0.1 and the gained PPIs 2.5
  Ratio (SH3-deleted/WT medrep): 0.1

B3: YNL243W (protein, UniProt P33338 1-968, looked up)
Protein SLA2: MSRIDSDLQKALKKACSVEETAPKRKHVRACIVYTWDHQSSKAVFTTLKTLPLANDEVQLFKMLIVLHKIIQEGHPSALAEAIRDRDWIRSLGRVHSGGSSYSKLIREYVRYLVLKLDFHAHHRGFNNGTFEYEEYVSLVSVSDPDEGYETILDLMSLQDSLDEFSQIIFASIQSERRNTECKISALIPLIAESYGIYKFITSMLRAMHRQLNDAEGDAALQPLKERYELQHARLFEFYADCSSVKYLTTLVTIPKLPVDAPDVFLINDVDESKEIKFKKREPSVTPARTPARTPTPTPPVVAEPAISPRPVSQRTTSTPTGYLQTMPTGATTGMMIPTATGAANAIFPQATAQMQPDFWANQQAQFANEQNRLEQERVQQLQQQQAQQELFQQQLQKAQQDMMNMQLQQQNQHQNDLIALTNQYEKDQALLQQYDQRVQQLESEITTMDSTASKQLANKDEQLTALQDQLDVWERKYESLAKLYSQLRQEHLNLLPRFKKLQLKVNSAQESIQKKEQLEHKLKQKDLQMAELVKDRDRARLELERSINNAEADSAAATAAAETMTQDKMNPILDAILESGINTIQESVYNLDSPLSWSGPLTPPTFLLSLLESTSENATEFATSFNNLIVDGLAHGDQTEVIHCVSDFSTSMATLVTNSKAYAVTTLPQEQSDQILTLVKRCAREAQYFFEDLMSENLNQVGDEEKTDIVINANVDMQEKLQELSLAIEPLLNIQSVKSNKETNPHSELVATADKIVKSSEHLRVDVPKPLLSLALMIIDAVVALVKAAIQCQNEIATTTSIPLNQFYLKNSRWTEGLISAAKAVAGATNVLITTASKLITSEDNENTSPEQFIVASKEVAASTIQLVAASRVKTSIHSKAQDKLEHCSKDVTDACRSLGNHVMGMIEDDHSTSQQQQPLDFTSEHTLKTAEMEQQVEILKLEQSLSNARKRLGEIRRHAYYNQDDD
BEM1-2
  medrep (log2 median colony size normalized to plate background, PCA score): 1.569
  Ratio (SH3-deleted/WT medrep): 0.1
BEM1-1
  medrep (log2 median colony size normalized to plate background, PCA score): 1.569
  Ratio (SH3-deleted/WT medrep): 0.1
[1]; [2]
  medrep (log2 median colony size normalized to plate background, PCA score): 4.4709
[1]; bait SLA1-2, label = prey
  Score: 0
[1]; [3]
  medrep (log2 median colony size normalized to plate background, PCA score): 4.4709
[1]; bait SLA1-3, label = prey
  Score: 0
ABP1
  medrep (log2 median colony size normalized to plate background, PCA score): 4.661
BBC1
  medrep (log2 median colony size normalized to plate background, PCA score): 2.46
  Ratio (SH3-deleted/WT medrep): 0.1

B4: YGR229C (protein, UniProt P32566 1-505, looked up)
Cell wall assembly regulator …: MDLFKRKVKEWVYSLSTDDHYAEYNPDETPTFNMGKRLNSNNGQVNPSQMHLNSVDEEMSMGFQNGVPSNEDINIDEFTSTESNDGVSETLLAWRHIDFWTSEHNPDLNATLSDPCTQNDITHAEEDLEVSFPNPVKASFKIHDGQEDLESMTGTSGLFYGFQLMTLDQVVAMTQAWRNVAKNLNKRSQQGLSHVTSTGSSSSMERLNGNKFKLPNIPDQKSIPPNAVQPVYAHPAWIPLITDNAGNHIGVDLAPGPNGKYAQIITFGRDFDTKFVIAENWGEFLLSFANDLEAGNWYLVDDNDDYFSGDGELVFRDKKSNGPIQDYFEVLKRRTWIKYQENLRSQQQKSQPDTSLQEQKYVPASQKKVAAEQPSTLNAESIKGEDSGSADVQSVQDHESVKIVKTEPSEAETTTVNTESLGQAEHEIKADNVDIKQESERKEDEKQPKVEEKEHVENEHVTESAKKDDDVNKQTEEMNKKEENEIRSDDAKVEEAREEFENIAL
BEM1-2
  medrep (log2 median colony size normalized to plate background, PCA score): 1.341
BEM1-1
  medrep (log2 median colony size normalized to plate background, PCA score): 1.341
  Ratio (SH3-deleted/WT medrep): 0.1
[1]; [2]
  medrep (log2 median colony size normalized to plate background, PCA score): 3.075
[1]; bait SLA1-2, label = prey
  Score: 1
[1]; bait SLA1-2, label = prey, only significant differences shown, PPIs completely lost have a ratio of 0.1, gained PPIs 2.5
  Ratio (SH3-deleted/WT medrep): 0.1
[1]; [3]
  medrep (log2 median colony size normalized to plate background, PCA score): 3.075
[1]; bait SLA1-3, label = prey
  Score: 0
ABP1
  medrep (log2 median colony size normalized to plate background, PCA score): 3.977
BBC1
  medrep (log2 median colony size normalized to plate background, PCA score): 2.755
  Ratio (SH3-deleted/WT medrep): 0.1

B5: YBL007C (protein, UniProt P32790 1-1244, looked up)
Actin cytoskeleton-regulatory …: MTVFLGIYRAVYAYEPQTPEELAIQEDDLLYLLQKSDIDDWWTVKKRVIGSDSEEPVGLVPSTYIEEAPVLKKVRAIYDYEQVQNADEELTFHENDVFDVFDDKDADWLLVKSTVSNEFGFIPGNYVEPENGSTSKQEQAPAAAEAPAATPAAAPASAAVLPTNFLPPPQHNDRARMMQSKEDQAPDEDEEGPPPAMPARPTATTETTDATAAAVRSRTRLSYSDNDNDDEEDDYYYNSNSNNVGNHEYNTEYHSWNVTEIEGRKKKKAKLSIGNNKINFIPQKGTPHEWSIDKLVSYDNEKKHMFLEFVDPYRSLELHTGNTTTCEEIMNIIGEYKGASRDPGLREVEMASKSKKRGIVQYDFMAESQDELTIKSGDKVYILDDKKSKDWWMCQLVDSGKSGLVPAQFIEPVRDKKHTESTASGIIKSIKKNFTKSPSRSRSRSRSKSNANASWKDDELQNDVVGSAAGKRSRKSSLSSHKKNSSATKDFPNPKKSRLWVDRSGTFKVDAEFIGCAKGKIHLHKANGVKIAVAADKLSNEDLAYVEKITGFSLEKFKANDGSSSRGTDSRDSERERRRRLKEQEEKERDRRLKERELYELKKARELLDEERSRLQEKELPPIKPPRPTSTTSVPNTTSVPPAESSNNNNSSNKYDWFEFFLNCGVDVSNCQRYTINFDREQLTEDMMPDINNSMLRTLGLREGDIVRVMKHLDKKFGRENIASIPTNATGNMFSQPDGSLNVATSPETSLPQQLLPQTTSPAQTAPSTSAETDDAWTVKPASKSESNLLSKKSEFTGSMQDLLDLQPLEPKKAAASTPEPNLKDLEPVKTGGTTVPAAPVSSAPVSSAPAPLDPFKTGGNNILPLSTGFVMMPMITGGDMLPMQRTGGFVVPQTTFGMQSQVTGGILPVQKTGNGLIPISNTGGAMMPQTTFGAAATVLPLQKTGGGLIPIATTGGAQFPQTSFNVQGQQQLPTGSILPVQKTANGLISANTGVSMPTVQRTGGTMIPQTSFGVSQQLTGGAMMTQPQNTGSAMMPQTSFNAVPQITGGAMMPQTSFNALPQVTGGAMMPLQRTGGALNTFNTGGAMIPQTSFSSQAQNTGGFRPQSQFGLTLQKTGGIAPLNQNQFTGGAMNTLSTGGVLQQQQPQTMNTFNTGGVMQELQMMTTFNTGGAMQQPQMMNTFNTDGIMQQPQMMNTFNTGGAMQQPQQQALQNQPTGFGFGNGPQQSRQANIFNATASNPFGF
[1]; [3]
  medrep (log2 median colony size normalized to plate background, PCA score): 4.843
[1]; bait SLA1-3, label = prey
  Score: 0
Abp1 PPIs
  medrep (log2 median colony size normalized to plate background): 4.393
ABP1
  medrep (log2 median colony size normalized to plate background, PCA score): 4.393
BBC1
  medrep (log2 median colony size normalized to plate background, PCA score): 2.803
  Ratio (SH3-deleted/WT medrep): 0.1

Source: PMC7954794, “Protein context shapes the specificity of SH3 domain-mediated interactions in vivo” (Nature Communications, 2021)
